In one data set the test system is O=C(O)Cc1c[nH]c2ccccc12. Briefly: purified protein. Particulars: 5 mM lysine fixed, IAA 0.05-10 mM, 1 mM ATP, 3 mM MgCl2, 100 mM KCl, 50 mM Tris-HCl pH 8.0, 25 °C.
The test system of a further data set is T1, IaaLPsf-3.
T1 construct: wild-type full-length ORF in pET28a, His6-tagged (C-terminal in methods, N-terminal in results), tag not cut, E. coli BL21
Briefly: coupled continuous spectrophotometric assay of AMP formation (myokinase/pyruvate kinase/lactate dehydrogenase, NADH at […] nm). It is filed as biochemical, Pseudomonas savastanoi. Particulars: 1 mM ATP, 3 mM MgCl2, 100 mM KCl, 50 mM Tris-HCl pH 8.0, 25 °C.

The Km is the concentration of substrate that gives half-maximal velocity. What is called Vmax is the top rate of the reaction or transport when substrate is in excess.

As to “IaaLPsn-1 (Pseudomonas savastanoi pv. nerii)”, in the data set with O=C(O)Cc1c[nH]c2ccccc12, the Km is 617 ± 158 µM, the Vmax turned out to be 0.0106 µmol/min/mg and the Vmax/Km amounted to 17.2 µL/min/mg.
Consider `NCCCC[C@H](N)C(=O)O` [Lys], for which the Michaelis constant (Km) in the data set on IaaLPsf-3 (1 mM IAA fixed, lysine 0.01-10 mM) is 320 ± 45 µM.
Take `O=C(O)Cc1c[nH]c2ccccc12` [IAA]: the Km in the data set on IaaLPsf-3 (5 mM lysine fixed, IAA 0.05-10 mM) was determined as 836 ± 142 µM.

Values taken from publication PMC10280071, “Allelic variation in the indoleacetic acid-lysine synthase gene of the bacterial pathogen Pseudomonas savastanoi and its role in auxin production” (Frontiers in Plant Science, 2023).
